Assay results reported in patent US20190077858A1 (KM BIOLOGICS, published 2019).
Residue numbers refer to the chain shown, from its start.

How the values were obtained:
[1] = target: chymase cleavage-type IL-18 (UniProt Q14116); test: cell-based or functional assay
[2] = target: human cell-derived natural IL-18 (human) (UniProt Q14116); test: cell-based or functional assay
[3] = target: T1, human IL-18 (MBL Medical & Biological Laboratories, Co., Ltd.) (human, UniProt Q14116 37-193, biotinylated (Biotin-PEAC5-maleimide or Biotin-AC5 Sulfo-OSu) in the streptavidin plate ELISAs and the panning; not labelled in the receptor binding and KG-1 assays); test: ELISA: biotinylated human IL-18 on streptavidin plate, anti-mouse IgG/HRP
T1 construct: Bought protein; also called human interleukin-18; biotinylated human IL-18
T1 sequence (looked up): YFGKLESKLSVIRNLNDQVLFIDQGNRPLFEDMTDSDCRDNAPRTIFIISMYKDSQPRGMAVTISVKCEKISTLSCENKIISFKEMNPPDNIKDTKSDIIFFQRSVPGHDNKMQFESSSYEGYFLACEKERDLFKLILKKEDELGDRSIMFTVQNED
Procedure: The biotinylated human IL-18 was diluted to 1 μg/mL with PBS (Sigma-Aldrich Corp.), added at 100 μL/well to Streptavidin plates (Nunc), and incubated at room temperature for 1 hour to immobilize the human IL-18. The plates were washed with PB ST, and human IL-18BPa-hFc (R&D Systems, Inc.) diluted to 10 μg/mL with 1% BSA-PBS was added at 100 μL/well to the plates and incubated at 37° C. for 1 hour to form a complex of IL-18 and IL-18BP. The plates were washed with PBST, and 4A6D scFv-mFc was added at 100 μL/well to the plates and incubated at 37° C. After 1 hour, the plates were washed with PBST, and a detection antibody anti-mouse IgG/HRP (Invitrogen Corp.) was added at 100 μL/well to the plates and incubated at 37° C. After 1 hour, the plates were washed with PBST, and TMB (Sigma-Aldrich Corp.) was added at 100 μL/well to the plates to develop color. After 30 minutes, the reaction was terminated with 1 M sulfuric acid, and the color values (O.D. 450 nm/650 nm) were measured using a microplate reader (Molecular Devices, Inc.).

[4] = target: T1, human IL-18 (MBL Medical & Biological …); test: panning of an scFv phage library on biotinylated human IL-18 on streptavidin magnetic beads
[5] = target: T1, human IL-18 (MBL Medical & Biological …); test: cell-based or functional assay
[6] = target: T2, human IL-1β (Funakoshi Corp.) (human, UniProt P01584 117-269, biotinylated (Biotin-PEAC5-maleimide or Biotin-AC5 Sulfo-OSu)); test: ELISA on biotinylated cytokine on streptavidin plates
T2 construct: also called biotinylated human IL-1β

[7] = target: T3, human IL-33 (MBL Medical & Biological Laboratories, Co., Ltd.) (human, UniProt O95760 112-270, limits assumed, biotinylated (Biotin-PEAC5-maleimide or Biotin-AC5 Sulfo-OSu)); test: as above
T3 construct: also called biotinylated human IL-33
T3 sequence (looked up): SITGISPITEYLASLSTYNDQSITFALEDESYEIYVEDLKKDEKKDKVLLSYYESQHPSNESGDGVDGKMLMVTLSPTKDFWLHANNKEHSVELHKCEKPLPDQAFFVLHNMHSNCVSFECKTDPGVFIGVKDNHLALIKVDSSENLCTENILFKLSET

[8] = target: T4, rat IL-18 (Acris Antibodies GmbH) (rat, UniProt P97636 37-194, limits assumed, biotinylated (Biotin-PEAC5-maleimide or Biotin-AC5 Sulfo-OSu)); test: as above
T4 construct: also called biotinylated rat IL-18
T4 sequence (looked up): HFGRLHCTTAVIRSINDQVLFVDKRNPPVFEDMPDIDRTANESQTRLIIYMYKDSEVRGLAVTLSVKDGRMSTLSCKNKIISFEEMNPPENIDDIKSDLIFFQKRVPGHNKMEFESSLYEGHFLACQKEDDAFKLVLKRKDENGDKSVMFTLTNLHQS

[9] = target: T5, mouse IL-18 (MBL Medical & Biological Laboratories, Co., Ltd.) (mouse, UniProt P70380 36-192, biotinylated (Biotin-PEAC5-maleimide or Biotin-AC5 Sulfo-OSu)); test: as above
T5 construct: also called biotinylated mouse IL-18
T5 sequence (looked up): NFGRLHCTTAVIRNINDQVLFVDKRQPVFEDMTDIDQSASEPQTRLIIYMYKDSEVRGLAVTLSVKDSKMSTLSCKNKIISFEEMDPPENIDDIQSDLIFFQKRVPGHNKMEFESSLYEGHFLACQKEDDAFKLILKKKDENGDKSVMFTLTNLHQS

[10] = target: T1, human IL-18 (MBL Medical & Biological …); test: ELISA, biotinylated human IL-18 on streptavidin plate, HRP detection antibody, O.D. 450nm/650nm
Procedure: The binding activity of the obtained scFv phages, scFv, and IgG prepared by a standard method (conventional method) was evaluated by ELISA. The biotinylated human IL-18 or the biotinylated mouse IL-18 was diluted to 1 μg/mL with PBS (Sigma-Aldrich Corp.), added at 100 μL/well to Streptavidin plates (Nunc), and incubated at room temperature for 2 hours to immobilize the IL-18. After the immobilization, the plates were washed with PBST, and each obtained scFv phage, scFv, or IgG was added at 100 μL/well to the plates and incubated at 37° C. After 1 hour, the plates were washed with PBST, and a detection antibody anti-M13/HRP (GE Healthcare Japan Corp.), anti-His tag/HRP (Bethyl Laboratories, Inc.), anti-V5 tag/HRP (Bethyl Laboratories, Inc.), anti-mouse IgG/HRP (Invitrogen Corp.), or anti-hFc/HRP (Cosmo Bio Co., Ltd., The binding site) was added at 100 μL/well to the plates and incubated at 37° C. After 1 hour, the plates were washed with PBST, and TMB (Sigma-Aldrich Corp.) was added at 100 μL/well to the plates to develop color. After 30 minutes, the reaction was terminated with 2 N sulfuric acid, and the color values (O.D. 450 nm/650 nm) were measured using a microplate reader (Molecular Devices, Inc.).

In the case of Negative control antibody, the Amount of IFN-γ produced [1] is reported as 109 pg/mL and the Amount of IFN-γ produced [2] is reported as 134 pg/mL.

B1: 4A6D scFv-mFc (Fc fusion)
scFv: EVQLVESGGGLVQPGGSMRLSCTASGFTFDEYAMSWVRQAPGKGLEWVSGISTGGGGTYYADSVEGRFTISRDNSKNTLYLQMNSLRAEDTAVYYCAKPWLSGSRSGDFWGQGTLVTVSSASTGGGGSGGGGSGGGGSQSALTQPASVSGSPGQSITISCTGTSSDVGGYNYVSWYQQHPGKAPKLLIYEVSHRPSGVSDRFSGSKSGNTASLTISGLQAEDEADYYCSSFTSSSSLYVFGTGTKLTVL
notes: not shown: mouse Fc (mFc) and any junction to it
With B1 the “EC50 (read off the curve)” value [3] was ~0.008 µg/mL.

B2: 4A6D scFv phage (scFv)
scFv: B1 scFv
modifications: displayed on phage
notes: the phage coat fusion is not described; not shown: phage coat protein fusion (display partner) and any tags; not described
B2: binds [4].

B3: 4A6S scFv phage (scFv)
scFv: B1 scFv with D30S
modifications: displayed on phage
notes: as for B2
B3: binds [4].

B4: IgG molecule-type 4A6S (antibody, V domains shown)
VH: EVQLVESGGGLVQPGGSMRLSCTASGFTFSEYAMSWVRQAPGKGLEWVSGISTGGGGTYYADSVEGRFTISRDNSKNTLYLQMNSLRAEDTAVYYCAKPWLSGSRSGDFWGQGTLVTVSS
VL: QSALTQPASVSGSPGQSITISCTGTSSDVGGYNYVSWYQQHPGKAPKLLIYEVSHRPSGVSDRFSGSKSGNTASLTISGLQAEDEADYYCSSFTSSSSLYVFGTGTKLTVL
notes: IgG prepared by a standard method; also called human anti-human IL-18 antibody 4A6S
For B4, the “Neutralizing ability (IC50, nM)” value [5] was 0.013 nM, the binding result [6] was “no binding” and the binding result [7] was “no binding”. The binding result [8] was “no binding”, the binding result [9] was “no binding” and the “EC50 (read off the curve)” value [10] was ~0.02 µg/mL.
